Like-named read-outs stand apart in the source and are kept apart here.
Columns and labels:
Settings in all cases: remark: other sources report otherwise
[1] = target: T1, RBD-FH, monomeric RBD (332-534) with a FLAG peptide and an 8xHis-tag at the C-terminus (SARS-CoV-2), P0DTC2
[2] = target: RBD-Fc, Wuhan strain (WA1) (SARS-CoV-2; human), P0DTC2
[3] = target: T1, RBD-FH, monomeric RBD (332-534) with a …; remark: listed apart in the source

| Binder | Kd [1] [nM] | koff [1] [s⁻¹] | kon [1] [M⁻¹ s⁻¹] | % inhibition of RBD binding to hACE2 [2] [%] | Kd [3] [nM] | koff [3] [s⁻¹] | kon [3] [M⁻¹ s⁻¹] |
| --- | --- | --- | --- | --- | --- | --- | --- |
| hcAb 2.15 (Fc fusion) heavy: QVQLVESGGGSVQAGGSLKLSCAASGYASWARKCIGWFRQAPGQEREGVAAIFDFDGSTYYSDSVKGRFTISGDNAKNTVSLQMNSLLPKDTAVYYCTVAFGTCDNWYRGRGDYWGQGTQVTVSS | 0.08 | 0.00012 | 1.42e+06 | > 95 |  |  |  |
| Nb 2.15 (VHH) VHH: QVQLVESGGGSVQAGGSLKLSCAASGYASWARKCIGWFRQAPGQEREGVAAIFDFDGSTYYSDSVKGRFTISGDNAKNTVSLQMNSLLPKDTAVYYCTVAFGTCDNWYRGRGDYWGQGTQVTVSS |  |  |  |  | 0.39 | 0.000778 | 2.02e+06 |
| Nb 1.10 (VHH) VHH: QVQLVESGGGSVQAGGSLRLSCAASGYTYSTCRKGWYRQAPGKERELVASITADGATYYLDSVKGRLTISQDNAKNTVYLQMNSLKPEDTAVYYCAASVKDFTCTFNSWGQGTQVTVSS |  |  |  |  | 3.96 | 0.00137 | 345000 |
| hcAb 1.10 (Fc fusion) heavy: QVQLVESGGGSVQAGGSLRLSCAASGYTYSTCRKGWYRQAPGKERELVASITADGATYYLDSVKGRLTISQDNAKNTVYLQMNSLKPEDTAVYYCAASVKDFTCTFNSWGQGTQVTVSS | 0.35 | 0.000237 | 679000 | > 95 |  |  |  |

From patent publication EP4242225A1
